Experimental data published in patent US20130116195A1, “Binding ligand linked drug delivery conjugates of tubulysins” (priority 2009, published 2013).
“Also recorded” adds a separate entry of the source.

How the values were obtained:
[1] = tested on: folate receptor-positive KB cells; experiment: Inhibition of Cellular DNA Synthesis (3H-thymidine incorporation cytotoxicity assay); format: cell-based; conditions: 2 hour pulse and 72 hour chase
Procedure: METHOD: Inhibition of Cellular DNA Synthesis. The compounds described herein were evaluated using an in vitro cytotoxicity assay that predicts the ability of the drug to inhibit the growth of folate receptor-positive KB cells. The compounds were comprised of folate linked to a respective chemotherapeutic drug, as prepared according to the protocols described herein. The KB cells were exposed for up to 7 h at 37° C. to the indicated concentrations of folate-drug conjugate in the absence or presence of at least a 100-fold excess of folic acid. The cells were then rinsed once with fresh culture medium and incubated in fresh culture medium for 72 hours at 37° C. Cell viability was assessed using a ^3H-thymidine incorporation assay. For compounds described herein, dose-dependent cytotoxicity was generally measurable, and in most cases, the IC50 values (concentration of drug conjugate required to reduce ^3H-thymidine incorporation into newly synthesized DNA by 50%) were in the low nanomolar range.
METHOD: In vitro test against the various cancer cell lines. Cells are heavily seeded in 24-well Falcon plates and allowed to form nearly confluent monolayers overnight. Thirty minutes prior to the addition of the test compound, spent medium is aspirated from all wells and replaced with fresh folate-deficient RPMI medium (FFRPMI). A subset of wells are designated to receive media containing 100 μM folic acid. The cells in the designated wells are used to determine the targeting specificity. […] Following one rinse with 1 mL of fresh FFRPMI containing 10% heat-inactivated fetal calf serum, each well receives 1 mL of medium containing increasing concentrations of test compound (4 wells per sample) in the presence or absence of 100 μM free folic acid as indicated. Treated cells are pulsed for 2 h at 37° C., rinsed 4 times with 0.5 mL of media, and then chased in 1 mL of fresh medium up to 70 h. Spent medium is aspirated from all wells and replaced with fresh medium containing 5 μCi/mL ^3H-thymidine. Following a further 2 h 37° C. incubation, cells are washed 3 times with 0.5 mL of PBS and then treated with 0.5 mL of ice-cold 5% trichloroacetic acid per well. After 15 min, the trichloroacetic acid is aspirated and the cell material solubilized by the addition of 0.5 mL of 0.25 N sodium hydroxide for 15 min. A 450 μL aliquot of each solubilized sample is transferred to a scintillation vial containing 3 mL of Ecolume scintillation cocktail and then counted in a liquid scintillation counter. Final tabulated results are expressed as the percentage of ^3H-thymidine incorporation relative to untreated controls.

[2] = Serum binding (30K NMWL filtration/HPLC-UV), human serum; format: in vitro ADME; conditions: for fraction unbound: human, 50 μM test article concentration in serum, n = 3, read-out: Human Serum % Bound (converted)
Procedure: (§1) METHOD: Serum binding against different species. Compounds are tested with 30K NMWL, subjected to Microcon filtration (10,000 g for 30 minutes), and compounds are detected by HPLC. […] There was two times the amount of free EC0531 in serum compared to EC0305.

[3] = Serum binding (30K NMWL filtration/HPLC-UV), mouse serum; format: in vitro ADME; conditions: 50 μM test article concentration in serum, n = 3, read-out: Mouse Serum % Bound (converted)
Procedure: as §1

[4] = Toxicity as measured by weight loss; format: in vivo, mice; conditions: for tolerability (percent weight change): FIG. 6, 3 μmol/kg TIW, female mice
Procedure: METHOD: Additional In vivo antitumor method. Four to six week-old female nu/nu mice (Charles River, Wilmington, Mass.) were maintained on a standard 12 h light-dark cycle and fed ad libitum with folate-deficient chow (Harlan diet #TD00434, Harlan Teklad, Madison, Wis.) for the duration of the experiment. KB cells (1×10^6 per nu/nu mouse) in 100 μL were injected in the subcutis of the dorsal medial area. Mice were divided into groups of five, and test articles were freshly prepared and injected through the lateral tail vein under sterile conditions in a volume of 200 μL of phosphate-buffered saline (PBS). Intravenous (i.v.) treatments were typically initiated on approximately 9 post-tumor cell implantation when the KB tumors were approximately 100-200 mm^3 in volume. The mice in the control groups received no treatment. Growth of each s.c. tumor was followed by measuring the tumor three times per week during treatment and twice per week thereafter until a volume of 1500 mm^3 was reached. Tumors were measured in two perpendicular directions using Vernier calipers, and their volumes were calculated as 0.5×L×W^2, where L=measurement of longest axis in mm and W=measurement of axis perpendicular to L in mm. As a general measure of toxicity, changes in body weights were determined on the same schedule as tumor volume measurements. Survival of animals was monitored daily. Animals that were moribund (or unable to reach food or water) were euthanized by CO2 asphyxiation. All in vivo studies were performed in accordance with the American Accreditation Association of Laboratory Animal Care guidelines.
METHOD: Toxicity as Measured by Weight Loss. The percentage weight change of the mice was determined in mice (5 mice/group) on selected days post-tumor inoculation (PTI), and graphed.

subcutaneous KB tumors = experiment: KB tumor assay, inhibition of tumor growth in mice; format: in vivo, nu/nu mice; conditions: FIG. 3A; 0.5, 0.75, 1 μmol/kg; tolerable and highly toxic dose levels
Procedure: METHOD: Inhibition of Tumor Growth in Mice. Four to seven week-old mice (Balb/c or nu/nu strains) were purchased from Harlan Sprague Dawley, Inc. (Indianapolis, Ind.). Normal rodent chow contains a high concentration of folic acid (6 mg/kg chow); accordingly, mice used were maintained on the folate-free diet (Harlan diet #TD00434) for 1 week before tumor implantation to achieve serum folate concentrations close to the range of normal human serum. For tumor cell inoculation, 1×10^6 M109 cells (Balb/c strain) or 1×10^6 KB cells (nu/nu strain) in 100 μL were injected in the subcutis of the dorsal medial area. Tumors were measured in two perpendicular directions every 2-3 days using a caliper, and their volumes were calculated as 0.5×L×W^2, where L=measurement of longest axis in mm and W=measurement of axis perpendicular to L in mm. […]
METHOD: General KB Tumor Assay. The anti-tumor activity of the compounds described herein, when administered intravenously (i.v.) to tumor-bearing animals, was evaluated in nu/nu mice bearing subcutaneous KB tumors. […] Tumor growth was measured using calipers at 2-day or 3-day intervals in each treatment group. Tumor volumes were calculated using the equation V=a×b^2/2, where “a” is the length of the tumor and “b” is the width expressed in millimeters.
METHOD: Additional In vivo antitumor method. […] Survival of animals was monitored daily. […]

With `CCCC(=O)OCN(C(=O)[C@@H](NC(=O)[C@H]1CCCCN1C)C(C)CC)[C@H](C[C@@H](OC(C)=O)c1nc(C(=O)N[C@@H](Cc2ccc(O)cc2)C[C@H](C)C(=O)NNC(=O)OCCSSC[C@H](NC(=O)[C@H](CCC(=O)NC[C@H](O)[C@@H](O)[C@H](O)[C@H](O)CO)NC(=O)[C@H](CCC(=O)O)NC(=O)[C@H](CCC(=O)NC[C@H](O)[C@@H](O)[C@H](O)[C@H](O)CO)NC(=O)[C@H](CCC(=O)NC[C@H](O)[C@@H](O)[C@H](O)[C@H](O)CO)NC(=O)[C@H](CCC(=O)O)NC(=O)[C@H](CCC(=O)NC[C@H](O)[C@@H](O)[C@H](O)[C@H](O)CO)NC(=O)CC[C@H](NC(=O)c2ccc(NCc3cnc4nc(N)[nH]c(=O)c4n3)cc2)C(=O)O)C(=O)O)cs1)C(C)C` (stereo partly drawn) [EC0530] the “cytotoxic activity in the presence of an excess of a folate-fluorescein conjugate” value [1] was “blocked”.
For `CCCC(=O)OCN(C(=O)[C@@H](NC(=O)[C@H]1CCCCN1C)C(C)CC)[C@H](C[C@@H](OC(C)=O)c1nc(C(=O)N[C@@H](Cc2ccc(O)cc2)C[C@H](C)C(=O)NNC(=O)OCCSSC[C@H](NC(=O)[C@H](CCC(=O)NC[C@H](O)[C@@H](O)[C@H](O)[C@H](O)CO)NC(=O)[C@H](CCC(=O)O)NC(=O)[C@H](CCC(=O)NC[C@H](O)[C@@H](O)[C@H](O)[C@H](O)CO)NC(=O)[C@H](CCC(=O)O)NC(=O)[C@H](CCC(=O)NC[C@H](O)[C@@H](O)[C@H](O)[C@H](O)CO)NC(=O)CC[C@H](NC(=O)c2ccc(NCc3cnc4nc(N)[nH]c(=O)c4n3)cc2)C(=O)O)C(=O)O)cs1)C(C)C` (stereo partly drawn) [EC0531], the “cytotoxic activity in the presence of an excess of a folate-fluorescein conjugate” value [1] was “blocked”, the “cytotoxic activity in the presence of an excess of folic acid” value [1] was “blocked” and the fraction unbound [2] was 0.38. For the same compound, the “amount of free conjugate in serum compared to EC0305” value ([2]; serum binding assay) was “two times”, the fraction unbound [3] was 0.503 and the “weight loss or major organ tissue degeneration” value ([4]; FIG. 4B, 1, 2, 3 μmol/kg TIW two weeks) was “apparent absence of weight loss or major organ tissue degeneration”. The “tolerability (percent weight change)” value [4] was “well tolerated; also recorded: safe and tolerable”.
With `CCC(C)[C@H](NC(=O)[C@H]1CCCCN1C)C(=O)N(COC(=O)CC(C)C)[C@H](C[C@@H](OC(C)=O)c1nc(C(=O)N[C@@H](Cc2ccc(O)cc2)C[C@H](C)C(=O)NNC(=O)OCCSSC[C@H](NC(=O)[C@H](CCC(=O)NC[C@H](O)[C@@H](O)[C@H](O)[C@H](O)CO)NC(=O)[C@H](CCC(=O)O)NC(=O)[C@H](CCC(=O)NC[C@H](O)[C@@H](O)[C@H](O)[C@H](O)CO)NC(=O)[C@H](CCC(=O)NC[C@H](O)[C@@H](O)[C@H](O)[C@H](O)CO)NC(=O)[C@H](CCC(=O)O)NC(=O)[C@H](CCC(=O)NC[C@H](O)[C@@H](O)[C@H](O)[C@H](O)CO)NC(=O)CC[C@H](NC(=O)c2ccc(NCc3cnc4nc(N)[nH]c(=O)c4n3)cc2)C(=O)O)C(=O)O)cs1)C(C)C` (stereo partly drawn) [EC0533] the “cytotoxic activity in the presence of an excess of a folate-fluorescein conjugate” value [1] was “blocked”.
With `CCCC(=O)OCN(C(=O)[C@@H](NC(=O)[C@H]1CCCCN1C)C(C)CC)[C@H](C[C@@H](OC(C)=O)c1nc(C(=O)N[C@@H](Cc2ccc(O)cc2)C[C@H](C)C(=O)NNC(=O)OCCSSC[C@H](NC(=O)[C@H](CC(=O)O)NC(=O)[C@H](CCCNC(=N)N)NC(=O)[C@H](CC(=O)O)NC(=O)CC[C@H](NC(=O)c2ccc(NCc3cnc4nc(N)[nH]c(=O)c4n3)cc2)C(=O)O)C(=O)O)cs1)C(C)C` (stereo partly drawn) [EC0305] the fraction unbound [2] was 0.207, the fraction unbound [3] was 0.362 and the “tolerability (percent weight change)” value [4] was “not well tolerated; also recorded: exceeded MTD”.
In the case of `CCCC(=O)OCN(C(=O)[C@@H](NC(=O)[C@H]1CCCCN1C)C(C)CC)[C@H](C[C@@H](OC(C)=O)c1nc(C(=O)N[C@@H](Cc2ccc(O)cc2)C[C@H](C)C(=O)O)cs1)C(C)C` (stereo partly drawn) [tubulysin B, reference compound], the “responses (animals)” value (subcutaneous KB tumors) is reported as 0/5 and the “toxicity (percent body weight change)” value ([4]; mouse, in vivo) is reported as “excessive toxicity”.
With `CCC(C)[C@H](NC(=O)[C@H]1CCCCN1C)C(=O)N(COC(=O)CC(C)C)[C@H](C[C@@H](OC(C)=O)c1nc(C(=O)N[C@@H](Cc2ccc(O)cc2)C[C@H](C)C(=O)NNC(=O)OCCSSC[C@H](NC(=O)[C@H](CC(=O)O)NC(=O)[C@H](CCCNC(=N)N)NC(=O)[C@H](CC(=O)O)NC(=O)CC[C@H](NC(=O)c2ccc(NCc3cnc4nc(N)[nH]c(=O)c4n3)cc2)C(=O)O)C(=O)O)cs1)C(C)C` (stereo partly drawn) [EC0510] the “tolerability (percent weight change)” value [4] was “exceeded MTD” and the “tolerability (percent weight change)” value ([4]; listed as EC0310) was “not well tolerated”.
With `CCC(C)[C@H](NC(=O)[C@H]1CCCCN1C)C(=O)N(COC(=O)CC(C)C)[C@H](C[C@@H](OC(C)=O)c1nc(C(=O)N[C@@H](Cc2ccc(O)cc2)C[C@H](C)C(=O)NNC(=O)OCCSSC[C@H](NC(=O)[C@H](CCC(=O)NC[C@H](O)[C@@H](O)[C@H](O)[C@H](O)CO)NC(=O)[C@H](CCC(=O)O)NC(=O)[C@H](CCC(=O)NC[C@H](O)[C@@H](O)[C@H](O)[C@H](O)CO)NC(=O)[C@H](CCC(=O)O)NC(=O)[C@H](CCC(=O)NC[C@H](O)[C@@H](O)[C@H](O)[C@H](O)CO)NC(=O)CC[C@H](NC(=O)c2ccc(NCc3cnc4nc(N)[nH]c(=O)c4n3)cc2)C(=O)O)C(=O)O)cs1)C(C)C` (stereo partly drawn) [EC0543] the “cytotoxic activity in the presence of an excess of a folate-fluorescein conjugate” value [1] was “blocked” and the observed weight loss ([4]; FIG. 9, 3 μmol/kg, nu/nu mice with KB tumors) was 15 to 18%.
